± gives the standard deviation of the averaged measurements.
Columns and labels:
Saccharomyces cerevisiae [1] = experiment: protein stability index of tFT-peptide fusion (C-terminal peptide) (PSI (0-1 scale)); higher = more stable (slower turnover); conditions: genetic background: wild type; temperature: 30 C
Saccharomyces cerevisiae [2] = experiment: as above
Description: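 MPS profiling in S. cerevisiae of the tFT-X12 degron library: putative degron peptides plus stable controls, 12 aa, fused to the C-terminus of a sfGFP-mCherry timer. Cells are FACS-sorted into 8 mCherry/sfGFP bins and deep-sequenced. PSI runs from 0 (unstable) to 1 (stable). Backgrounds are wild type, das1Δ and doa10Δ at 30 °C, and wild type, das1Δ, cdc34-1 and cdc53-1 at 37 °C; 2-3 technical replicates each.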

[3] = genetic background: cdc34-1, temperature: 37 C
[4] = genetic background: cdc53-1, temperature: 37 C
[5] = genetic background: das1 deletion, temperature: 30 C
[6] = genetic background: das1 deletion, temperature: 37 C
[7] = genetic background: doa10 deletion, temperature: 30 C
[8] = genetic background: wild type, temperature: 30 C
[9] = genetic background: wild type, temperature: 37 C
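Also: PSI is a weighted mean of sequencing reads over stability bins, variants kept only with over 10 reads, mCherry proximal and sfGFP distal, peptide attached via GGGS linker.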

| Sequence | protein stability index (Saccharomyces cerevisiae [1]) | protein stability index (Saccharomyces cerevisiae [2]; [3]) | protein stability index (Saccharomyces cerevisiae [2]; [4]) | protein stability index (Saccharomyces cerevisiae [2]; [5]) | protein stability index (Saccharomyces cerevisiae [2]; [6]) | protein stability index (Saccharomyces cerevisiae [2]; [7]) | protein stability index (Saccharomyces cerevisiae [2]; [8]) | protein stability index (Saccharomyces cerevisiae [2]; [9]) |
| --- | --- | --- | --- | --- | --- | --- | --- | --- |
| AALFNYVVCFCA | 0.358 ± 0.0079 | 0.474 ± 0.059 | 0.537 ± 0.035 | 0.377 ± 0.025 | 0.512 ± 0.013 | 0.301 ± 0.0065 | 0.323 ± 0.015 | 0.436 ± 0.025 |
| AASRVIYLLNLF | 0.3446 ± 0.0022 | 0.653 ± 0.034 | 0.753 ± 0.008 | 0.6272 ± 0.0031 | 0.736 ± 0.027 | 0.197 ± 0.0028 | 0.232 ± 0.018 | 0.473 ± 0.027 |
| AFRFHTYFLLLC | 0.0812 ± 0.019 | 0.0472 ± 0.006 | 0.0404 ± 0.0043 | 0.153 ± 0.04 | 0.184 ± 0.0066 | 0.0686 ± 0.021 | 0.0553 ± 0.012 | 0.0696 ± 0.038 |
| AGLLVLISWRLF | 0.217 ± 0.036 | 0.0795 ± 0.014 | 0.213 ± 0.036 | 0.171 ± 0.029 | 0.337 ± 0.0065 | 0.124 ± 0.013 | 0.141 ± 0.019 | 0.223 ± 0.022 |
| AKVFGLILVLLT | 0.334 ± 0.022 | 0.211 ± 0.026 | 0.349 ± 0.027 | 0.227 ± 0.023 | 0.407 ± 0.025 | 0.201 ± 0.017 | 0.205 ± 0.024 | 0.3711 ± 0.0013 |
| ALEIIRLSHRLC | 0.127 ± 0.011 | 0.498 ± 0.048 | 0.689 ± 0.022 | 0.618 ± 0.008 | 0.731 ± 0.009 | 0.0821 ± 0.0079 | 0.0791 ± 0.016 | 0.113 ± 0.0018 |
| APEWGGGDEWWG | 0.767 ± 0.012 | 0.75 ± 0.04 | 0.802 ± 0.015 | 0.691 ± 0.014 | 0.804 ± 0.019 | 0.697 ± 0.015 | 0.7 ± 0.0091 | 0.7984 ± 0.0027 |
| APPFPSLSSFAP | 0.717 ± 0.018 | 0.679 ± 0.039 | 0.744 ± 0.038 | 0.7 ± 0.016 | 0.737 ± 0.03 | 0.693 ± 0.032 | 0.706 ± 0.04 | 0.718 ± 0.026 |
| APPPVAPAPGSA | 0.709 ± 0.012 | 0.65 ± 0.026 | 0.701 ± 0.015 | 0.653 ± 0.035 | 0.7043 ± 0.0061 | 0.647 ± 0.041 | 0.675 ± 0.053 | 0.672 ± 0.051 |
| APPRLPLLSCSQ | – | 0.652 ± 0.021 | 0.712 ± 0.0095 | 0.661 ± 0.05 | 0.6939 ± 0.00016 | 0.684 ± 0.045 | 0.642 ± 0.044 | 0.699 ± 0.014 |
| APPSRRLTLRLA | – | 0.577 ± 0.039 | 0.696 ± 0.019 | 0.6614 ± 0.0066 | 0.709 ± 0.017 | 0.142 ± 0.003 | 0.145 ± 0.0058 | 0.32 ± 0.044 |
| APRPSYSLLALL | 0.443 ± 0.025 | 0.733 ± 0.034 | 0.858 ± 0.13 | 0.711 ± 0.04 | 0.783 ± 0.026 | 0.375 ± 0.01 | 0.41 ± 0.0052 | 0.616 ± 0.043 |
| ASVSVWCVSVVV | 0.15 ± 0.026 | 0.124 ± 0.017 | 0.166 ± 0.0023 | 0.103 ± 0.02 | 0.1641 ± 0.00088 | 0.087 ± 0.024 | 0.109 ± 0.017 | 0.148 ± 0.011 |
| AVLSFVLVRSVV | 0.471 ± 0.02 | 0.58 ± 0.052 | 0.619 ± 0.012 | 0.417 ± 0.026 | 0.604 ± 0.017 | 0.399 ± 0.031 | 0.417 ± 0.021 | 0.574 ± 0.0062 |
| AWVLISNRRRIM | 0.262 ± 0.065 | 0.62 ± 0.071 | 0.747 ± 0.011 | 0.648 ± 0.033 | 0.745 ± 0.025 | 0.187 ± 0.0092 | 0.216 ± 0.029 | 0.502 ± 0.095 |
| AYPAHQLLVSCL | 0.482 ± 0.028 | 0.509 ± 0.012 | 0.511 ± 0.021 | 0.405 ± 0.026 | 0.5435 ± 0.0014 | 0.351 ± 0.016 | 0.384 ± 0.038 | 0.5 ± 0.024 |
| CCGWSGCVSGVL | 0.717 ± 0.018 | 0.698 ± 0.029 | 0.7602 ± 0.0038 | 0.638 ± 0.014 | 0.7418 ± 0.0014 | 0.651 ± 0.012 | 0.657 ± 0.02 | 0.74 ± 0.024 |

— the supplement of paper PMC10724198
